Legend:
[1] = target: human α4β7 integrin (human) (UniProt P13612); experiment: FACS, 1 µg/ml, BaF3-hα4β7 cells
[2] = target: human α4β1 integrin (human) (UniProt P05556); experiment: FACS, 1 µg/ml, CHOK1-hα4β1 cells
[3] = target: human α4β7 integrin (human) (UniProt P13612); experiment: blockade of HuT78 cell adhesion to MAdCAM-1
[4] = target: cynomolgus α4β7 integrin (cynomolgus monkey); experiment: FACS, 1 µg/ml, CHOK1-cα4β7 cells
[5] = target: human α4β7 integrin (human) (UniProt P13612); experiment: FACS titration on BaF3-hα4β7
[6] = target: human α4β7 integrin (human) (UniProt P13612); experiment: competitive FACS, 50x excess of non-labelled competitor Ab-m1
[7] = target: human α4β7 integrin (human) (UniProt P13612); experiment: competitive FACS, 50x excess of non-labelled competitor Ab-Vedo
[8] = target: human α4β7 integrin (human) (UniProt P13612); experiment: competitive FACS, 50x excess of non-labelled competitor Ab-Abri
[9] = target: human α4β7 integrin (human) (UniProt P13612); experiment: FACS, primary human CD4+ memory T cells
[10] = target: human α4β7 integrin (human) (UniProt P13612); experiment: row IC50 (pM) HuT78 of the binning table (assay not explained, presumably adhesion to MAdCAM-1)
[11] = target: mouse α4β7 integrin (mouse) (UniProt Q00651); experiment: FACS, 1 µg/ml, CHOK1-mα4β7 cells
[12] = target: human α4β7 integrin (human) (UniProt P13612); experiment: competitive FACS, 50x excess of non-labelled competitor Ab-Etro
[13] = target: human αEβ7 integrin (human) (UniProt P38570); experiment: FACS, 1 µg/ml, BaF3-hαEβ7 cells
[14] = target: cynomolgus α4β7 integrin (cynomolgus monkey); experiment: blockade of CHOK1-cα4β7 cell adhesion to MAdCAM-1
[15] = target: cynomolgus α4β7 integrin (cynomolgus monkey); experiment: blockade of CHOK1/cα4β7 adhesion to MAdCAM-1
[16] = target: cynomolgus αEβ7 integrin (cynomolgus monkey); experiment: FACS, 1 µg/ml, BaF3-cαEβ7 cells
[17] = target: human α4β7 integrin (human) (UniProt P13612); experiment: blockade of HuT78 adhesion to coated VCAM-1 hFc, experiment 1
[18] = target: human α4β7 integrin (human) (UniProt P13612); experiment: blockade of HuT78 adhesion to coated VCAM-1 hFc, experiment 3
[19] = target: human α4β7 integrin (human) (UniProt P13612); experiment: blockade of HuT78 adhesion to coated VCAM-1 hFc, average N = 3
[20] = target: human α4β7 integrin (human) (UniProt P13612); experiment: blockade of HuT78 adhesion to coated VCAM-1 hFc, experiment 2

mouse α4β7 integrin (mouse), sequence (Q00651 41-1039, chain 1 of 2): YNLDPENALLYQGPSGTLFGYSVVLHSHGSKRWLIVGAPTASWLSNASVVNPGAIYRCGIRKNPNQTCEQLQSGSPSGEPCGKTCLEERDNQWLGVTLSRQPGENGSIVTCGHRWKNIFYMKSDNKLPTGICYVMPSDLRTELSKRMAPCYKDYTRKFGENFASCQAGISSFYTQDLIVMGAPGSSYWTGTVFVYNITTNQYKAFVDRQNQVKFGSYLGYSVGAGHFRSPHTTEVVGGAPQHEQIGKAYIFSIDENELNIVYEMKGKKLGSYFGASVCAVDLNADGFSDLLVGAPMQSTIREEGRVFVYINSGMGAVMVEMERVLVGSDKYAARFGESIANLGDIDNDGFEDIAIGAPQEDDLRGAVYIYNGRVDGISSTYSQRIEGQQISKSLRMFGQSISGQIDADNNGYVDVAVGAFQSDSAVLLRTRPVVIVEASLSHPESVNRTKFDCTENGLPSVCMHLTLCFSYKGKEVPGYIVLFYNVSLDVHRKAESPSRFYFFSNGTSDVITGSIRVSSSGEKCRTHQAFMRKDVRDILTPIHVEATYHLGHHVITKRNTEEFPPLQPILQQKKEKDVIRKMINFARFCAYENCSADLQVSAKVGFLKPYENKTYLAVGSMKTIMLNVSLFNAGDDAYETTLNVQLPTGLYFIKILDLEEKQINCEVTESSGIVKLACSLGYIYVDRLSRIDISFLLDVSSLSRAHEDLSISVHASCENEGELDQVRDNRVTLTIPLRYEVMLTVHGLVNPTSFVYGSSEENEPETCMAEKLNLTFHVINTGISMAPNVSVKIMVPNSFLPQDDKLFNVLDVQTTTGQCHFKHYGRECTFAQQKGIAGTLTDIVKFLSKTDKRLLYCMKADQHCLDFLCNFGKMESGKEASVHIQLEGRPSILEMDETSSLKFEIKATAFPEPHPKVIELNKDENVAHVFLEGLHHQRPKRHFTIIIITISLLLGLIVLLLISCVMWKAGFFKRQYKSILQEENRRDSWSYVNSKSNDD
mouse α4β7 integrin (mouse), sequence (P26011 20-806, chain 2 of 2, further chain): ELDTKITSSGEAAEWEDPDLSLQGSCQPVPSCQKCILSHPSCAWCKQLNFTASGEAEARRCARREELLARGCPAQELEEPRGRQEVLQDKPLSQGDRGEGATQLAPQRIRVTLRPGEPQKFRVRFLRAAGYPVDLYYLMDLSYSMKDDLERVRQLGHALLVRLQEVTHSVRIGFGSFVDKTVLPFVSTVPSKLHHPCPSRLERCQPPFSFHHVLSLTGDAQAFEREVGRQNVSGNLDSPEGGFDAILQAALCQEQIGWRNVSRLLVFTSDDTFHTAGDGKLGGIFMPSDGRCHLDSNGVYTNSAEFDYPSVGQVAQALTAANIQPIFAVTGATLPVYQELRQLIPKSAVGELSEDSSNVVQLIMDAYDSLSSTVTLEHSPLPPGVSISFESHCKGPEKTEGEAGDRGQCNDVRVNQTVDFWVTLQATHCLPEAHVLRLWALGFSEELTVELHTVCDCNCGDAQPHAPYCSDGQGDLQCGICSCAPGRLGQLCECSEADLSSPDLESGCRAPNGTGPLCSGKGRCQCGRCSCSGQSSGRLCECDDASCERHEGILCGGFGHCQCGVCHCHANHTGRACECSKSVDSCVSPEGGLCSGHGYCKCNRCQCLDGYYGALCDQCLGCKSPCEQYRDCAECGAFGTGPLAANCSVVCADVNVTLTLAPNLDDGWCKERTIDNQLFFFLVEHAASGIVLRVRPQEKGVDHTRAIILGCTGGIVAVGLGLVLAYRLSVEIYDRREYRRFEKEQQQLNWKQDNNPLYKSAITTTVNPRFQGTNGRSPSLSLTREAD

| FACS MFI [1] | FACS MFI [2] | IC50 [3] | Max inhibition (%) [3] | FACS MFI [4] | EC50 [5] | Max MFI [5] | percentage of binding inhibition [6] | percentage of binding inhibition [7] | percentage of binding inhibition [8] | EC50 [9] | IC50 [10] | FACS MFI [11] | percentage of binding inhibition [12] | FACS MFI [13] | IC50 [14] | Max inhibition (%) [14] | IC50 [15] | FACS MFI [16] | Binder | also measured |
| --- | --- | --- | --- | --- | --- | --- | --- | --- | --- | --- | --- | --- | --- | --- | --- | --- | --- | --- | --- | --- |
| 624 MFI | 4.25 MFI | 0.0129 nM | 103% | 89.8 MFI | 0.679 nM | 775 MFI | 73% | 88% | 89% | 0.0049 nM | 0.0129 nM | 2.87 MFI | 80% | 9.81 MFI | 0.0994 nM | 95.9% | 0.0509 nM | 68.3 MFI | Ab-Abri (antibody, INN chains, looked up, V domains shown, IgG2 Alexa488 conjugate) VH: QVQLVQSGAEVKKPGASVKVSCKVSGYTLSDLSIHWVRQAPGKGLEWMGGFDPQDGETIYAQKFQGRVTMTEDTSTDTAYMELSSLKSEDTAVYYCATGSSSSWFDPWGQGTLVTVSS VL: DIQMTQSPSSVSASVGDRVTITCRASQGISSWLAWYQQKPGKAPKLLIYGASNLESGVPSRFSGSGSGTDFTLTISSLQPEDFANYYCQQANSFPWTFGQGTKVEIK | – |
| – | – | – | – | – | – | – | – | – | – | – | – | – | – | – | – | – | – | – | Ab-Nata (antibody, INN chains, looked up, V domains shown) VH: QVQLVQSGAEVKKPGASVKVSCKASGFNIKDTYIHWVRQAPGQRLEWMGRIDPANGYTKYDPKFQGRVTITADTSASTAYMELSSLRSEDTAVYYCAREGYYGNYGVYAMDYWGQGTLVTVSS VL: DIQMTQSPSSLSASVGDRVTITCKTSQDINKYMAWYQQTPGKAPRLLIHYTSALQPGIPSRFSGSGSGRDYTFTISSLQPEDIATYYCLQYDNLWTFGQGTKVEIKR | IC50 [17]: 0.038 nM; IC50 [18]: 0.077 nM; IC50 [19]: 0.056 nM; IC50 [20]: 0.054 nM |
| 440 MFI | 4.53 MFI | 0.0178 nM | 104% | 97.2 MFI | 0.705 nM | 951 MFI | -1% | 6% | 60% | 0.0054 nM | 0.0178 nM | 92.2 MFI | 93% | 73.2 MFI | 0.241 nM | 91.5% | 0.0499 nM | 247 MFI | Ab-Etro (antibody, INN chains, looked up, V domains shown, IgG1 Alexa488 conjugate) VH: EVQLVESGGGLVQPGGSLRLSCAASGFFITNNYWGWVRQAPGKGLEWVGYISYSGSTSYNPSLKSRFTISRDTSKNTFYLQMNSLRAEDTAVYYCARTGSSGYFDFWGQGTLVTVSS VL: DIQMTQSPSSLSASVGDRVTITCRASESVDDLLHWYQQKPGKAPKLLIKYASQSISGVPSRFSGSGSGTDFTLTISSLQPEDFATYYCQQGNSLPNTFGQGTKVEIK | – |

Reference: patent US20260062488A1
